Target: barrier-to-autointegration factor (BAF) (UniProt Q9VLU0)
Experiment: GFP affinity purification, mass spectrometry
Conditions: reference: GFP-Ote wild type; sites S50,S54

binding against the reference: stronger
Substance: otefin (Ote; emerin) (from UniProt P20240) GFP-OteAA (S50A S54A)

Reference: paper PMC10353892
